Key:
[1] = biological target: T1, full-length Vac8 (S. cerevisiae, UniProt P39968 1-578); experiment: ITC
T1 sequence (looked up): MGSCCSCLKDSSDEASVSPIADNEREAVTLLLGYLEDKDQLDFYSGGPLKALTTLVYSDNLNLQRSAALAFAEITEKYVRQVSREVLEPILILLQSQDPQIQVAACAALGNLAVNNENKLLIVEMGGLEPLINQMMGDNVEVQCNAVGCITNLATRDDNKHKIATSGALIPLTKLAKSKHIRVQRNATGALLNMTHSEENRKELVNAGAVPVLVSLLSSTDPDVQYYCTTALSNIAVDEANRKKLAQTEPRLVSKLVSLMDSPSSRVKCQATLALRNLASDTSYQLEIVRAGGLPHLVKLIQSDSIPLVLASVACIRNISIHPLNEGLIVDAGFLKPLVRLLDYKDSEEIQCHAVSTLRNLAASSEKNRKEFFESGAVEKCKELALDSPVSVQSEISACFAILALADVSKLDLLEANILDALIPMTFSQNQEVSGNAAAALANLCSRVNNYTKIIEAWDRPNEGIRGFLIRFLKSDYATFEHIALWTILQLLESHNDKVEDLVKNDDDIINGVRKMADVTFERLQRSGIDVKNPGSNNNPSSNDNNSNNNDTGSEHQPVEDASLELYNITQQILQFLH

[2] = biological target: T2, Vac8[Δ19–33] (full-length Vac8 lacking the H1 helix, residues 19–33) (S. cerevisiae, UniProt P39968 1-578, Δ19–33); experiment: ITC
T2 sequence (looked up): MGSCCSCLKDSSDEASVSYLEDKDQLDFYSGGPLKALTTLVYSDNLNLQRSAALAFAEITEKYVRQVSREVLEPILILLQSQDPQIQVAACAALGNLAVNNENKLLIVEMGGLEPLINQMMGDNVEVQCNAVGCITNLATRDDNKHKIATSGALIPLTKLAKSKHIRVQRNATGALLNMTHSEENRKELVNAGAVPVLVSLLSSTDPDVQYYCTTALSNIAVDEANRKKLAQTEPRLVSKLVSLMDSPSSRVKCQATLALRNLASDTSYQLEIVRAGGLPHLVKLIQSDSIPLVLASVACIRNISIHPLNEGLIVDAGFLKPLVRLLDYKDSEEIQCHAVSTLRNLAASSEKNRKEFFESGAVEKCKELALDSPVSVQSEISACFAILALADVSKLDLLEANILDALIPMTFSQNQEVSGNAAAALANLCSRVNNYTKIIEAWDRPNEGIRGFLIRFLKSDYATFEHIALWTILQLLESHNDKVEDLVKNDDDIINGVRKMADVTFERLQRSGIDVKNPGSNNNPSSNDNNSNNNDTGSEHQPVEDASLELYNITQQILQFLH

[3] = biological target: T3, tVac8 (Vac8 construct comprising residues 10–515) (S. cerevisiae, UniProt P39968 10-515); experiment: AUC
T3 sequence (looked up): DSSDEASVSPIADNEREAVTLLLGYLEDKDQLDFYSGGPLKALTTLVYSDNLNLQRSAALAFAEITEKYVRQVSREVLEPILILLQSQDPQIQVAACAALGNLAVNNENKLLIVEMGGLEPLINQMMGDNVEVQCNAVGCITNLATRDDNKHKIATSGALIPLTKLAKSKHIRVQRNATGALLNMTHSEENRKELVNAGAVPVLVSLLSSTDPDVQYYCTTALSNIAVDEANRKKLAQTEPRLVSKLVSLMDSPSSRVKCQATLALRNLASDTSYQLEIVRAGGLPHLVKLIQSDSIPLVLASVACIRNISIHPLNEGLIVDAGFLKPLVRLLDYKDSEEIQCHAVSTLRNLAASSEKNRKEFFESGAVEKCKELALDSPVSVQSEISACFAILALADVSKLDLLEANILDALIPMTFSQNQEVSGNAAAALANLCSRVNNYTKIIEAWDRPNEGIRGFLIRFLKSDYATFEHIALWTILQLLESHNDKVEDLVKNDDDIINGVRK

[4] = biological target: T4, Vac8[40–515]^L55R (S. cerevisiae, UniProt P39968 40-515, L55R); experiment: SEC
T4 sequence (looked up): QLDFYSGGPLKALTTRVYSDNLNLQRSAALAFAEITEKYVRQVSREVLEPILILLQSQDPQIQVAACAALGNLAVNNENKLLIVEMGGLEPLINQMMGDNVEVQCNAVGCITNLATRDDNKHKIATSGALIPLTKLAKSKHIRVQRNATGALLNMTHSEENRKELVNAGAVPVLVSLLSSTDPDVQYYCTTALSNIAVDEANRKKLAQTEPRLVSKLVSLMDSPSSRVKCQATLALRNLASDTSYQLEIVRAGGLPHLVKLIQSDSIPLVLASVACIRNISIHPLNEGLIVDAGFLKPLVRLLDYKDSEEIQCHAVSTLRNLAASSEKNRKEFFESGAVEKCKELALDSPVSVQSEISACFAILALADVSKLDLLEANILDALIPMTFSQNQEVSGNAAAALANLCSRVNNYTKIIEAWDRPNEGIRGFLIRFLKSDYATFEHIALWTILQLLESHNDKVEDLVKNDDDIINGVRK

B1: tAtg13 (Atg13 construct comprising residues 567–695) (domain or fragment, S. cerevisiae, UniProt Q06628 567-695, looked up)
chain: GGNSSTSALNSRRNSLDKSSNKQGMSGLPPIFGGESTSYHHDNKIQKYNQLGVEEDDDDENDRLLNQMGNSATKFKSSISPRSIDSISSSFIKSRIPIRQPYHYSQPTTAPFQAQAKFHKPANKLIDNG
In the case of B1, the binding result [1] is reported as “binds”, the Kd [2] is reported as 1460 nM and the binding result [3] is reported as “binds”. B1: binds [4].

Source: paper PMC7469494 (Autophagy, 2019)
